The assay concerns the target T1, biotinylated soluble human IL-1RI ectodomain (human, UniProt P14778 18-336, biotinylated with EZ-Link Sulfo-NHS-SS-Biotin, approaching 2 mol biotin/mol receptor).
T1 construct: extracellular domain; also called biotinylated IL-1RI; biotinylated human IL-1RI
T1 sequence (looked up): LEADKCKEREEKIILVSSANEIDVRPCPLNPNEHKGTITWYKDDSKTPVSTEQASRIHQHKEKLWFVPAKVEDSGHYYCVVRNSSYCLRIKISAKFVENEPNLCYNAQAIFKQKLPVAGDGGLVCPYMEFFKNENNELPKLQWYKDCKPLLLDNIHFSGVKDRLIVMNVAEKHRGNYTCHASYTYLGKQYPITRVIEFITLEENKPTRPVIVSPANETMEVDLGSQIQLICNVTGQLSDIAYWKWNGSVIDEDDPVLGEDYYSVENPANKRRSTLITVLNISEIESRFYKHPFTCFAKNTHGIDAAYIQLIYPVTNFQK
Briefly: SPR, IL-1α binding to biotinylated receptor.

B1: human IL-1α (ligand, UniProt P01583 113-271, looked up)
chain: SAPFSFLSNVKYNFMRIIKYEFILNDALNQSIIRANDQYLTAAALHNLDEAVKFDMGAYKSSKDDAKITVILRISKTQLYVTAQDEDQPVLLKEMPEIPKTITGSETNLLFFWETHGTKNYFTSVAHPNLFIATKQDYWVCLAGGPPSITDFQILENQA
On to B1, for which the Kd was found to be 1 nM.
